According to patent EP1126866B1 (The Regents of the University of California, dated 2007):

Target: rat cardiac SR Ca2+ ATPase (SERCA2a), endogenous in rat cardiomyocytes (rat, UniProt P11507 1-1043)
Experiment: cell-based or functional assay

Chain of rat cardiac SR Ca2+ ATPase (SERCA2a), endogenous in rat cardiomyocytes (P11507 whole entry): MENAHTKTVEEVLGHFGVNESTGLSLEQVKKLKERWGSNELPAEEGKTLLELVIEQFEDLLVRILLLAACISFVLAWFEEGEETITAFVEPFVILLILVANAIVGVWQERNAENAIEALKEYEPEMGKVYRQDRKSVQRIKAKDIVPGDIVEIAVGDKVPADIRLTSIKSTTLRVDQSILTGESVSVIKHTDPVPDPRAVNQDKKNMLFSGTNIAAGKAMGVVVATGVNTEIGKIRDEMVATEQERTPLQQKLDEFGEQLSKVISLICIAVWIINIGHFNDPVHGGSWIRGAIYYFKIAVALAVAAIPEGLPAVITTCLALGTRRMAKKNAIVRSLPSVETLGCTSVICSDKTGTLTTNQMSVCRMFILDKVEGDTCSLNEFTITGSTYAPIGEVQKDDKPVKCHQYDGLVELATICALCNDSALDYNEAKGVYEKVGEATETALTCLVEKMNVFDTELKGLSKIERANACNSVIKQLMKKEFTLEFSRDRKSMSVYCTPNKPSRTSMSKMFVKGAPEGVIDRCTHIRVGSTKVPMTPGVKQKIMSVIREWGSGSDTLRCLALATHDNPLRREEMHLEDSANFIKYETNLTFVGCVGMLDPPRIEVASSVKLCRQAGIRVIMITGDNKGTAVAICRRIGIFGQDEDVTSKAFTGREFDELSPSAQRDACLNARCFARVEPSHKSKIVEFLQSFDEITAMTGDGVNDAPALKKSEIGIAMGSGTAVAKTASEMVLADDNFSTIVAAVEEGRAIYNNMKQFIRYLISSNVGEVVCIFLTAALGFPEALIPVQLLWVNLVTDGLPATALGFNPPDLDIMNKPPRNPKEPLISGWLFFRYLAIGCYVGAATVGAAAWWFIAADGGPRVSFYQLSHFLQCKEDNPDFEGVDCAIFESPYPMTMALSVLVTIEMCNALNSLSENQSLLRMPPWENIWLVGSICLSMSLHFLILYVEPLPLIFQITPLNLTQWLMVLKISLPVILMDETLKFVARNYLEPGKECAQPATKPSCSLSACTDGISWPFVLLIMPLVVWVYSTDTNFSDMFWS

EC50 of Ca2+ concentration at which the SR Ca2+ uptake activity is half-maximal (neonatal rat myocytes): 110 nM
lowering of the EC50 of Ca2+ for SR Ca2+ uptake (adult rat myocytes): 36%
B1: K3E/R14E double point mutation of PLB (other)
chain: MEEVQYLTRSAIREASTIEMPQQARQKLQNLFINFCLILICLLLICIIVMLL
